According to paper PMC6491428:

Legend:
[1] = test system: TH1N1 (influenza A H1N1 target protein; protein identity not stated in the material) (Influenza A virus H1N1 (strain not stated)); assay: electrochemical DPV (Apta-DEPSOR)
[2] = test system: TH1N1 (influenza A H1N1 target protein; protein identity not stated in the material) (Influenza A virus H1N1 (strain not stated)); assay: SPR
[3] = test system: TH3N2 (influenza A H3N2 target protein; protein identity not stated in the material) (Influenza A virus H3N2 (strain not stated)); assay: electrochemical DPV (Apta-DEPSOR)
[4] = test system: TH3N2 (influenza A H3N2 target protein; protein identity not stated in the material) (Influenza A virus H3N2 (strain not stated)); assay: SPR

Sequence	binding signal [1]	Kd [2] [nM]	binding signal [3]	Kd [4] [nM]	binding signal (fold lower signal than with TH3N2) [1]	binding signal (fold lower signal than with TH1N1) [3]
AGCAGCACAGAGGTCAGATGAGGTGATGAGATTTGTACCTCTCGCGGCACCCTATCGCTGCTACCGTGAA [Apt02>TH1N1]	2.26 µA (Ipc)	57				
AGCAGCACAGAGGTCAGATGGCGCGGGCGGTGCGTCGGTGTCCCGCTGGCCTATCGCTGCTACCGTGAA [Apt03>TH3N2]			1.11 µA (Ipc)	0.6		
AGCAGCACAGAGGTCAGATGGTGGTTGTTTTGGGCGAAGTGGCCATGGTCCCTATCGCTGCTACCGTGAA [Apt02>TH3N2]			1.16 µA (Ipc)	1.7		
AGCAGCACAGAGGTCAGATGCTAGCCGTGAGCGTGGTGAGCTCGGTTGACCCTATCGCTGCTACCGTGAA [Apt01>TH3N2]			1.73 µA (Ipc)	0.14	9	
AGCAGCACAGAGGTCAGATGTAGGTCGTACTCTGGCGGCCTGTTTGGCCCTATCGCTGCTACCGTGAA [Apt03>TH1N1]	3.37 µA (Ipc)	0.082				5
AGCAGCACAGAGGTCAGATGTCTGCAGCGTGCAGGGCTGTGTGCTTACCCCCTATCGCTGCTACCGTGAA [Apt04>TH3N2]			1.61 µA (Ipc)	0.088		
AGCAGCACAGAGGTCAGATGTGTGCGTGCTTGGGGTATAGTCGGGTCGGCCTATCGCTGCTACCGTGAA [Apt04>TH1N1]	1.23 µA (Ipc)	1.6				
AGCAGCACAGAGGTCAGATGATTGGATCGTGACGGTTGTTGGGGCTCCGCCTATCGCTGCTACCGTGAA [Apt01>TH1N1]	0.85 µA (Ipc)	35000				
